Where a chain is given by its changes, count along the chain named. Read-outs that look alike come from different tables or passages of the source.
What was measured:
Assay in all cases: EMSA
E2F1 full-length [1] = biological target: T1, E2F1 full-length (human, UniProt Q01094 1-437)
E2F1 full-length [2] = biological target: T1, E2F1 full-length; remark: listed apart in the source
E2F1 full-length [3] = biological target: T1, E2F1 full-length; remark: listed apart in the source
E2F1 DBD R166H = E2F1 DBD R166H (UniProt Q01094 110-194, R166H)
E2F1 DBD R166H, sequence (Q01094 110-194 R166H): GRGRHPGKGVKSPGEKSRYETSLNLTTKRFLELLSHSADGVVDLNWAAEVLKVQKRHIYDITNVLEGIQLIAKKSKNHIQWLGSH

E2F1 DBD L132E = E2F1 DBD L132E (UniProt Q01094 110-194, L132E)
E2F1 DBD L132E, sequence (Q01094 110-194 L132E): as the sequence (Q01094 110-194 R166H) above, with L23E, H57R counted along it

T1 sequence (Q01094 whole entry): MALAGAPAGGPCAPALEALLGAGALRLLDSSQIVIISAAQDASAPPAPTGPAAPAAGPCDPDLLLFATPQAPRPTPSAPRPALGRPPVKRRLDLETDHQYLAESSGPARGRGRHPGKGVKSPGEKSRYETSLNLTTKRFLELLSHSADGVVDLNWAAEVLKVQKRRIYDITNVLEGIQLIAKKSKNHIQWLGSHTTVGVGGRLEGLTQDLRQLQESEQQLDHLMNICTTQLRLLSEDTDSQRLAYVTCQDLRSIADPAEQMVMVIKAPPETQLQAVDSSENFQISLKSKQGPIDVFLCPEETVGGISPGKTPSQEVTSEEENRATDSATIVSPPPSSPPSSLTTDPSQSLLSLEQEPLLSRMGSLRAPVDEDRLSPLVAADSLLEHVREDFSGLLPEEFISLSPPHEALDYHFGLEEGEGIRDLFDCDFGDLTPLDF

B1: BS1 double stranded (stem) (structured_RNA)
RNA: AUCGAUUUCCAGCUCGAUCGAUCGAGCUGGAAAUCGAU
- binding result (E2F1 full-length [1]): binds

B2: BS3 double stranded (stem) (structured_RNA)
RNA: B1 RNA with U8C, A11C, U28G, A31G
- binding result (E2F1 full-length [2]): binds

B3: BS4 double stranded (stem) (structured_RNA)
RNA: B1 RNA with A11C, G12U, C27A, U28G
- binding result (E2F1 full-length [1]): binds

B4: BS2 double stranded (stem) (structured_RNA)
RNA: B1 RNA with A11C, U28G
- binding result (E2F1 full-length [1]): binds

B5: 42-mer dsDNA (2XE2F1_DNA_BS) (dsDNA)
DNA 1: GCCGTTTTCGCGCTTAAATTTGAGAAAGGGCGCGAAACTGGA
DNA 2: TCCAGTTTCGCGCCCTTTCTCAAATTTAAGCGCGAAAACGGC
- binding result (E2F1 full-length [3]): binds
- binding result (E2F1 DBD R166H): binds
- binding result (E2F1 DBD L132E): binds

From publication PMC12172627
